In publication PMC3307728:

T1: DEAF1-FLAG (human, UniProt O75398 1-565)
T1 sequence: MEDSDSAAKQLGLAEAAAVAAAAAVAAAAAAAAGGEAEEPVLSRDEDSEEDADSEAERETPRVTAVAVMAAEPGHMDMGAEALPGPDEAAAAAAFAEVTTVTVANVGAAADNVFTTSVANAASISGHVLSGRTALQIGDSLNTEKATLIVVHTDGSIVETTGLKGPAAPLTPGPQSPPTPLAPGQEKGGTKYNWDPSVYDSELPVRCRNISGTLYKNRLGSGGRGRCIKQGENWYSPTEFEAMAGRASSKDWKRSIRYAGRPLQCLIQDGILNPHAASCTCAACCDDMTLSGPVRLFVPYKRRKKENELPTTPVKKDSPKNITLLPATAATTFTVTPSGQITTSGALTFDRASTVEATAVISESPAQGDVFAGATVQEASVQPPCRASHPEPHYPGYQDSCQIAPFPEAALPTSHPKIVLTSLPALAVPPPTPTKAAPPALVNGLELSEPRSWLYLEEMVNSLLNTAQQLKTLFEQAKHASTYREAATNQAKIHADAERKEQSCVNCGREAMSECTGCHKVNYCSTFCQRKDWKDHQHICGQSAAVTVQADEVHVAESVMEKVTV


How the values were obtained:
DEAF1-FLAG [1] = biological target: T1, DEAF1-FLAG; assay: EMSA; doublet of shifted bands; EMSA: 100 mM KCl, 50 mM Tris pH 7.5, 1 mM DTT, 25 °C, 30 min protein preincubation then 30 min with 32P probe; 4% native gel; settings: protein: recombinant; tags: FLAG (C-terminal, from the name DEAF1-FLAG; also written FLAG-DEAF1); chain copies: 2; label: 32P in EMSA
Ku70;FLAG-Ku80 = Ku70;FLAG-Ku80 (human?;human?, UniProt P12956;P13010 1-609;1-732, |); assay: EMSA; DNA end binding; EMSA: 100 mM KCl, 50 mM Tris pH 7.5, 1 mM DTT, 25 °C, 30 min protein preincubation then 30 min with 32P probe; 4% native gel; settings: protein: recombinant;recombinant; tags: none;FLAG (N-terminal, from the name); copies: 1;1; label: 32P in EMSA
DEAF1-FLAG [2] = biological target: T1, DEAF1-FLAG; assay: EMSA; no shift; EMSA: 100 mM KCl, 50 mM Tris pH 7.5, 1 mM DTT, 25 °C, 30 min protein preincubation then 30 min with 32P probe; 4% native gel; settings: protein: recombinant; tags: FLAG (C-terminal, from the name DEAF1-FLAG; also written FLAG-DEAF1); chain copies: 2; label: 32P in EMSA

Sequence of Ku70;FLAG-Ku80 (P12956 whole entry, chain 1 of 2): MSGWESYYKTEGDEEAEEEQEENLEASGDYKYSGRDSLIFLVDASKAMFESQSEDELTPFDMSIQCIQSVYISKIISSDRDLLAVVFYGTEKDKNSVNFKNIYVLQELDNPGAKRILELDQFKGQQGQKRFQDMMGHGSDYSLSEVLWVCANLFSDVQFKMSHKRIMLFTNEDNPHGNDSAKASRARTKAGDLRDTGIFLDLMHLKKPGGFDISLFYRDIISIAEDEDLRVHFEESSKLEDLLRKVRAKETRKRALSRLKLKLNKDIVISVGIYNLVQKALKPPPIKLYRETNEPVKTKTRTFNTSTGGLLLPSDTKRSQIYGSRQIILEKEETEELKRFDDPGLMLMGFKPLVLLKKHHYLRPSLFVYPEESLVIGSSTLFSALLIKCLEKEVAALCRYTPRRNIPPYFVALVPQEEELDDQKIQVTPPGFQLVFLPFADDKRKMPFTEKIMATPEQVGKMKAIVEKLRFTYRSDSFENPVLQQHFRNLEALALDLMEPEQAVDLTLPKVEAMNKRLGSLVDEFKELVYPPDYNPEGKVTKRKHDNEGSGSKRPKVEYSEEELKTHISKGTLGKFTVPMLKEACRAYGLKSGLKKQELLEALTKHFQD
Sequence of Ku70;FLAG-Ku80 (P13010 whole entry, chain 2 of 2): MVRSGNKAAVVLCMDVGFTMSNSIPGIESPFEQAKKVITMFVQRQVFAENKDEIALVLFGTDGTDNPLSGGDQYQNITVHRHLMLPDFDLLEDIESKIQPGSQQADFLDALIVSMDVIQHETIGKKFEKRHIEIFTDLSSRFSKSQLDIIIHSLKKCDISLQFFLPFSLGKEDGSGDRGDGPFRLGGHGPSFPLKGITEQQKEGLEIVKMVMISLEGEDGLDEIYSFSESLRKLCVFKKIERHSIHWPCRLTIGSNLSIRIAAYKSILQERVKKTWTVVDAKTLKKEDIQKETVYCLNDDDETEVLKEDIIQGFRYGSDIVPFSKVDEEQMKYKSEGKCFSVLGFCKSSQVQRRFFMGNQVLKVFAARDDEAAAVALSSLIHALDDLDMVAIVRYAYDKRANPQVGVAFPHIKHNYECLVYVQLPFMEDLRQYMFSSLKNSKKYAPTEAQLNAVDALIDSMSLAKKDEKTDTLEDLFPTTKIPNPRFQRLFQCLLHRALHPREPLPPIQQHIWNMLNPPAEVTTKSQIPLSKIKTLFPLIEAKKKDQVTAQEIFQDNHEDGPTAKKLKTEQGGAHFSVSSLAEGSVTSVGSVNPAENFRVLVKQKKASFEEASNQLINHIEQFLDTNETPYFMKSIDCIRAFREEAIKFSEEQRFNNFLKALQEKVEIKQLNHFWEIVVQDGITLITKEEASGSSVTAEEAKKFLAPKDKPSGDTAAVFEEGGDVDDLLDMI

Binder	binding result (DEAF1-FLAG [1])	binding result (Ku70;FLAG-Ku80)	binding result (DEAF1-FLAG [2])
N52-69 (dsDNA) DNA 1: TTCGGCTTCCCACTTCGG DNA 2: CCGAAGTGGGAAGCCGAA	binds	binds	–
Mut 2 (dsDNA) DNA 1: TTTTGCTTCCCACTTTTG DNA 2: CAAAAGTGGGAAGCAAAA	–	binds	no binding
